Measurements reported in patent publication US20200247894A1 (Regeneron, published 2020).
Changes are numbered by the printed parent chain. Values belong to the binder of their own block, whether it stands above or below them.

How the values were obtained:
[1] = biological target: T1, D1 domain of human IL-2Rγ extracellular domain expressed with a C-terminal myc-myc-hexahistidine tag (human); assay: SPR, mAb captured on anti-hFc, 37 C
T1 construct: also called human IL2Rγ domain 1
T1 chain: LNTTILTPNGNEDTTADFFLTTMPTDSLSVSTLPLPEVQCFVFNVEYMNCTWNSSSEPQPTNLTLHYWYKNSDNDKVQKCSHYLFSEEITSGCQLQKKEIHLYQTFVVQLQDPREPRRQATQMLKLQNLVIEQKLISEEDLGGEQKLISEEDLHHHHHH
Protocol: (§1) Equilibrium dissociation constants (KD values) for IL-2Rγ binding to purified anti-IL2Rγ monoclonal antibodies were determined using a Biacore 4000 instrument equipped with a real-time surface plasmon resonance biosensor. All binding studies were performed in 10 mM HEPES, 150 mM NaCl, 3 mM EDTA, and 0.05% v/v Surfactant Tween-20, pH 7.4 (HBS-ET) running buffer at 25° C. and 37° C. The Biacore sensor surface was first derivatized by amine coupling with a monoclonal mouse anti-human Fc antibody (GE, # BR-1008-39) to capture anti-IL2Rγ monoclonal antibodies.
(§2) The dissociation of monoclonal antibody bound IL2Rγ reagents were monitored for 8-10 minutes in HBS-ET running buffer. Kinetic association (kₐ) and dissociation (kd) rate constants were determined by fitting the real-time sensorgrams to a 1:1 binding model using Scrubber 2.0c curve fitting software. Binding dissociation equilibrium constants (KD) and dissociative half-lives (t_{1/2}) were calculated from the kinetic rate constants as: […]

[2] = biological target: T2, D2 domain of human IL2Rγ extracellular domain expressed with a C-terminal myc-myc-hexahistidine tag (human); assay: SPR, mAb captured on anti-hFc, 25 C
T2 construct: also called human IL2Rγ domain 2
T2 chain: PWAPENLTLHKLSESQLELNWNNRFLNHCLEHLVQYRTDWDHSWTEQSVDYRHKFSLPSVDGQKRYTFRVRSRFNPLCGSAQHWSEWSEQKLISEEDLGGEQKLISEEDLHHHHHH
Protocol: as §1

[3] = biological target: T2, D2 domain of human IL2Rγ extracellular …; assay: SPR, mAb captured on anti-hFc, 37 C
Protocol: as §1

[4] = biological target: T1, D1 domain of human IL-2Rγ extracellular …; assay: SPR, mAb captured on anti-hFc, 25 C
Protocol: as §1, §2

[5] = biological target: T3, human IL2Rγ (endogenously expressed on cells) (human, UniProt P31785 23-369); assay: cell-based or functional assay
T3 sequence (looked up): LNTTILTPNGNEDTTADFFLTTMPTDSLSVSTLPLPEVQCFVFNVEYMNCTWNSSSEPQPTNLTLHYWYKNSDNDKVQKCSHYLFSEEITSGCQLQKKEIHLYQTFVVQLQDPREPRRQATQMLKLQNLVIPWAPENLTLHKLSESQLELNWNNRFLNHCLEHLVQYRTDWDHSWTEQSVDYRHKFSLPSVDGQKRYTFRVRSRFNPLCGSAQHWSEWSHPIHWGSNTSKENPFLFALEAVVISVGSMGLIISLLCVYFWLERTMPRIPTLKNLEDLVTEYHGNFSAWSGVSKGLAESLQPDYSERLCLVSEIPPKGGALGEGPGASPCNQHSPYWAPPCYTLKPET

[6] = biological target: T2, D2 domain of human IL2Rγ extracellular …; assay: SPR, mAb captured on anti-hFc, 25 C; 25 C
Protocol: as §1

[7] = biological target: T4, Human IL2Rγ extracellular domain expressed with a C-terminal myc-myc-hexahistidine tag (human); assay: SPR Biacore 4000, mAb captured by anti-hFc, HBS-ET, 25C; 25 C
T4 construct: also called hIL-2Rg-MMH; hIL-2RG-MMH
T4 chain: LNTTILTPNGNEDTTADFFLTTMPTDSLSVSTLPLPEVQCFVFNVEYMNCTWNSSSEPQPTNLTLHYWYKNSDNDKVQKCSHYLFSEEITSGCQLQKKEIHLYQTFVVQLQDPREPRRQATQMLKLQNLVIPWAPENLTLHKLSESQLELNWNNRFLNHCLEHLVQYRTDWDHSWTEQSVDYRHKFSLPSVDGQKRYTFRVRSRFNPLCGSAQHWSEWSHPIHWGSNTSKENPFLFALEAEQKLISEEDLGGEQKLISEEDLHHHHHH
Protocol: as §1, §2

[8] = biological target: T5, Macaca fascicularis IL2Rγ extracellular domain expressed with a C-terminal myc-myc-hexahistidine tag (Macaca fascicularis); assay: SPR Biacore 4000, mAb captured by anti-hFc, HBS-ET, 25C
T5 construct: also called mfIL-2Rg-MMH; mfIL-2RG-MMH
T5 chain: T4 chain with T14A, A16T, T22S, H141R, T228S
How it was run: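 KD and dissociative half-life come from rate constants obtained by 1:1 binding-model fits of real-time sensorgrams. Antibodies sit on an anti-human Fc capture surface, with HBS-ET (pH 7.4) as running buffer and an 8-10 minute dissociation phase.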

[9] = biological target: T5, Macaca fascicularis IL2Rγ extracellular …; assay: SPR Biacore 4000, mAb captured by anti-hFc, 37C, dissociation in PBS-T pH 7.4
How it was run: (§3)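 Capture format uses immobilised mouse anti-human Fc on CM5 to hold each human IgG4 Fc antibody. Off-rates are measured over a 6 min PBS-T dissociation phase and fitted as kd with a 1:1 binding model.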

[10] = biological target: T5, Macaca fascicularis IL2Rγ extracellular …; assay: SPR Biacore 4000, mAb captured by anti-hFc, 37C, dissociation in PBS-T pH 6.0
How it was run: as §3

100 nM Ag Bound [1]: 1 RU
100 nM Ag Bound [2]: 37 RU
Kd [2]: 2.76 nM
koff [2]: 0.000708 s⁻¹
kon [2]: 256000 M⁻¹ s⁻¹
t½ [2]: 960 s
100 nM Ag Bound [3]: 16 RU
Kd [3]: 12.7 nM
koff [3]: 0.00337 s⁻¹
kon [3]: 266000 M⁻¹ s⁻¹
t½ [3]: 204 s
100 nM Ag Bound [4]: 0 RU
binding result [4]: no binding (tested: 100 nM)
IC50; IL-4 250 pM; Ramos.2G6.4C10/STAT3-luc [5]: > 1e-07 M
IC50; IL-7 50 pM; NK92/hIL7R/STAT3-luc [5]: > 1e-07 M
IC50; IL-9 20 pM; NK92/hIL7R/STAT3-luc [5]: > 1e-07 M
IC50; IL-15 60 pM; NK92/hIL7R/STAT3-luc [5]: > 1e-07 M
Max Inhibition (%); IL-2 30 pM; NK92/hIL7R/STAT3-luc [5]: 24%
Max Inhibition (%); IL-4 250 pM; Ramos.2G6.4C10/STAT3-luc [5]: 55%
Max Inhibition (%); IL-7 50 pM; NK92/hIL7R/STAT3-luc [5]: 77%
Max Inhibition (%); IL-9 20 pM; NK92/hIL7R/STAT3-luc [5]: 57%
Max Inhibition (%); IL-15 60 pM; NK92/hIL7R/STAT3-luc [5]: 58%
B1: H4H12913P2 (antibody, human IgG4 S228P, kappa, V domains shown)
VH: EVQLVESGGGVVRPGGSLRLSCAASGFTFDDYGMSWVRQAPGKGLEWISSINRNGGSADYADSVKGRFTISRDNAKNSLFLQMSSLRAEDTALYHCASGEFRFDYWGQGTLVTVSS
VL: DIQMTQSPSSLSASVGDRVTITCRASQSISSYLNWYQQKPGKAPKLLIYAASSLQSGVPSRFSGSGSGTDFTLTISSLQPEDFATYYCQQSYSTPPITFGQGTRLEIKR
notes: human IgG4

Kd [6]: 69.9 nM
koff [6]: 0.0166 s⁻¹
kon [6]: 238000 M⁻¹ s⁻¹
t½ [6]: 42 s
100 nM Ag Bound [1]: 1 RU
100 nM Ag Bound [4]: 0 RU
binding result [4]: no binding (tested: 100 nM)
IC50; IL-7 50 pM; NK92/hIL7R/STAT3-luc [5]: > 1e-07 M
Max Inhibition (%); IL-2 30 pM; NK92/hIL7R/STAT3-luc [5]: 18%
Max Inhibition (%); IL-4 250 pM; Ramos.2G6.4C10/STAT3-luc [5]: 33%
Max Inhibition (%); IL-7 50 pM; NK92/hIL7R/STAT3-luc [5]: 46%
Max Inhibition (%); IL-15 60 pM; NK92/hIL7R/STAT3-luc [5]: 34%
B2: H4H12927P2 (antibody, human IgG4 S228P, kappa, V domains shown)
VH: EVQLVESGGGVVRPGGSLRLSCATSGFTFDDYGMSWVRQVPGKGLEWVSSVNRNGGTTDYADSVKGRFTISRDNAKRSLFLQMNSLRAEDTALYHCATGELFFDYWGQGTLVTVSS
VL: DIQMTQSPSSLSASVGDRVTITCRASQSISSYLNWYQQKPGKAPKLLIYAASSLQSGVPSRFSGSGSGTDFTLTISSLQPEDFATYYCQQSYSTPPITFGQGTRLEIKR
notes: human IgG4

Kd [7]: 132 nM
koff [7]: 0.0264 s⁻¹
kon [7]: 200000 M⁻¹ s⁻¹
t1/2 [7]: 24 s
100 nM Ag Bound [8]: 11 RU
Kd [8]: 107 nM
koff [8]: 0.0261 s⁻¹
kon [8]: 244000 M⁻¹ s⁻¹
t1/2 [8]: 24 s
100 nM Ag Bound (RU) [9]: 25 RU
koff [9]: 0.0279 s⁻¹
t1/2 [9]: 24 s
100 nM Ag Bound (RU) [10]: 20 RU
koff [10]: 0.0303 s⁻¹
t1/2 [10]: 24 s
B3: H4H12926P2 (antibody, human IgG4 S228P, kappa, V domains shown)
VH: QVQLQQSGPGLVKPSQTLSLTCAISGDSVSSNIAAWNWIRLSPSRGLEWLGRTFFRSTWFYDYSLSVKGRITINPDTSKNQFSLHLNSVTPEDAAVYYCARTGRRWSLDYWGQGTLVTVSS
VL: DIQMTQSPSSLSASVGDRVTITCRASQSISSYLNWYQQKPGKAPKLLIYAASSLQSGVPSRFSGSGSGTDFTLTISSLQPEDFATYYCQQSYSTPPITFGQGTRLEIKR
notes: anti-IL2Rγ monoclonal antibody expressed with human IgG4 Fc
